This note sets out measurements from patent US20250281587A1 (ELANCO US, published 2025).

This assay addresses T1, recombinant mouse IL-1RI Fc chimera (R&D 771-MR-100) (mouse, UniProt P13504 20-338).
T1 construct: Coated on ELISA plates at 1 µg/ml; Used instead of canine or feline IL-1RI, which were not commercially available; also called IL-1RI receptor; Fc part of the bought chimera not given
T1 sequence (looked up): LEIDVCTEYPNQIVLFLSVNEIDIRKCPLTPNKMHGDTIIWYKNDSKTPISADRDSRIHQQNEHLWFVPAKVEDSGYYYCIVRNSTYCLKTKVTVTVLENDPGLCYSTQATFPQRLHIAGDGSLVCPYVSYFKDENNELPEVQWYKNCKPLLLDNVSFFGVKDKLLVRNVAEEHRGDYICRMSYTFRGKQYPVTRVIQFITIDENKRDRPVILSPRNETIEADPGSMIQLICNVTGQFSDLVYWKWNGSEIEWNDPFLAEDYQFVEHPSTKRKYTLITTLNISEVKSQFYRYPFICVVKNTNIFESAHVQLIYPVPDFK
In words: ELISA, mouse IL-1RI Fc chimera coated, detection with biotinylated anti-fIL-1β antibody.

B1: purified feline IL-1β wild type (ligand)
chain: MGSAAIQSQDYTFRDISQKSLVLSGSYELRALHLNGQNMNQQVVFRMSFVHGEENSKKIPVVLCIKKNNLYLSCVMKDGKPTLQLEMLDPKVYPKKKMEKRFVFNKTEIKGNVEFESSQFPNWYISTSQAEEMPVFLGNTKGGQDITDFIMESASTSHHHHHHGGCG
notes: also called purified wild type feline IL-1β; recombinant feline wild type IL-1β
For the molecule B1, the binding result is “binds”.
